Here are results for 12 molecules from US11697815B2, “Regulation of gene expression through aptamer-modulated polyadenylation” (MeiraGTx UK II Limited, priority 2016, dated 2023).

Positions count from the first letter of the chain named.

The test system of data set [1] is Renilla luciferase expression. Description: Renilla luciferase assay of HEK 293 cells transfected with pRL-SV40 constructs carrying U1 binding sites in the 3′ UTR. Conditions: for suppressive effect of U1 site on luciferase gene expression (in words): no ligand; for reduction fold (luciferase activity of mutant construct / wild type construct): compared to corresponding mutant construct; for inhibition of Renilla luciferase expression/activity: compared to pRL-SV40 control vector. Type of data set: cell-based. How it is done: Plasmid constructs: oligonucleotides (oligos) containing either wild type consensus U1 binding sequence or its mutant sequence were synthesized (IDT). The synthesized oligos were cloned into the 3′ UTR of the pRL-SV40 luciferase expression vector (Promega) using Gibson Assembly Cloning Kit (NEB). Constructs were purified (Qiagen) and verified by DNA sequencing (Genewiz).
(§1) Transfection: 3.5×10^4 HEK 293 cells were plated in a 96-well flat bottom plate the day before transfection. Plasmid DNA (500 ng) was added to a tube or a 96-well U-bottom plate. Separately, TransIT-293 reagent (Mirus; 1.4 μl) was added to 50 μl Opti-mem I media (Life Technologies), and allowed to sit for 5 minutes at room temperature (“RT”). Then, 50 μl of this diluted transfection reagent was added to the DNA, mixed, and incubated at RT for 20 min. Finally, 7 μl of this solution was added to a well of cells in the 96-well plate.
(§2) Renilla luciferase assay of cultured cells: 24 hours after the media change, plates were removed from the incubator, and equilibrated to RT for several minutes on a lab bench, and the media aspirated. Glo-lysis buffer (Promega, 100 μl, RT) was added, and the plates allowed to remain at room temp for at least 5 minutes. Then, the well contents were mixed by 50 μl trituration, and 20 μl of each well was mixed with 20 μl of Renilla-glo reagent in a solid-white 384-well plate. Ten minutes later, luminescence was measured using a Tecan machine with 500 msec read time. The luciferase activity was expressed as mean relative light unit (RLU)±SD.
The stem-loop sequences containing a wild type 9 nt U1 binding sequence were synthesized (IDT) and cloned into pRL-SV40 vector. The construct sequences were verified by DNA sequencing (Genewiz). HEK 293 cells were transfected and Renilla luciferase assay were performed as described in Example 1.

Data set [2] concerns Renilla luciferase expression. Briefly: Renilla luciferase assay of HEK 293 cells transfected with U1_theo riboswitch constructs, with or without theophylline. The class given is cell-based. To be noted: for induction fold of luciferase activity (theophylline treated / untreated): 3 mM theophylline, 20 to 24 hours; for change of luciferase activity after theophylline treatment (in words): with vs without theophylline. How it is done:
as §1, §2
Oligonucleotides containing either the full length of sequences of the stem from the stem-loop structure and theophylline aptamer or the truncated sequences of the stem, were synthesized (IDT) and cloned into pRL-SV40 vector using the Gibson Assembly Cloning Kit (NEB). Construct sequences were verified by DNA sequencing (Genewiz).
Transfection and aptamer ligand treatment: HEK 293 cells were transfected as described in Example 1. Four hours after transfection, the media was aspirated, and new media with or without 3 mM theophylline was added. A Renilla luciferase assay was performed 20 to 24 hours after theophylline treatment as described in Example 1. The induction fold was expressed as the quotient of luciferase activity obtained in the presence of aptamer ligand divided by the value obtained in the absence of the aptamer ligand.
Oligos containing 4 copies of the U1_theo_8_1 sequence in tandem were synthesized (IDT) and cloned using Gibson strategy and cloning kit (NEB). HEK 293 cells were transfected and Renilla luciferase assay was performed as described in Example 4.

B1: U1 87-9 SL broken: control sequence in which no stem is formed, in pRL-SV40 (nucleic acid)
DNA: TCAAATCGTTCGTTGAGCGAGTTCTCAAAAATGAACAATAATTCTAGAGCGGCCGCTTCGAGCAGACATGATAAGATACATTGATGAGTTTGGACAAACCAAACCCAGGTAAGTTACCGAAAAAAACAAACAAAAAACAACTAGAATGCAGTGAAAAAAATGCTTTATTTGTGAAATTTGTGATGCTATTGCTTTATTTGTAACCATTATAAGCTGCAATAAACAAGTTAACAACAAC
modifications: in pRL-SV40; U1 87-9 SL broken in pRL-SV40
As for B1, in data set [1], the “suppressive effect of U1 site on luciferase gene expression (in words)” value (shortened to “suppressive effect of U1 site”) is given as “showed little effect on the suppressive function of U1 site”.

B2: 2×U1-140 wt: 2 copies of wild type U1 binding sequence at −140 in pRL-SV40 (nucleic acid)
DNA: TCAAATCGTTCGTTGAGCGAGTTCTCAAAAATGAACAATAATTCTAGACAGGTAAGTAACCAAACAGGTAAGTAGCGGCCGCTTCGAGCAGACATGATAAGATACATTGATGAGTTTGGACAAACCACAACTAGAATGCAGTGAAAAAAATGCTTTATTTGTGAAATTTGTGATGCTATTGCTTTATTTGTAACCATTATAAGCTGCAATAAACAAGTTAACAACAAC
modifications: in pRL-SV40; 2xU1-140 wt in pRL-SV40
B2: the “reduction fold (luciferase activity of mutant construct / wild type construct)” value in data set [1] is given as 272 fold.

B3: U1-140 mut: mutant U1 binding sequence at −140 in pRL-SV40 (nucleic acid)
DNA: TCAAATCGTTCGTTGAGCGAGTTCTCAAAAATGAACAATAATTCTAGACATGGAACTAGCGGCCGCTTCGAGCAGACATGATAAGATACATTGATGAGTTTGGACAAACCACAACTAGAATGCAGTGAAAAAAATGCTTTATTTGTGAAATTTGTGATGCTATTGCTTTATTTGTAACCATTATAAGCTGCAATAAACAAGTTAACAACAAC
modifications: in pRL-SV40; U1-140 mut in pRL-SV40
Take B3: the “suppressive effect of U1 site” value in data set [1] is “did not cause inhibition of luciferase gene expression”.

B4: U1-140 wt: consensus U1 binding sequence at −140 in pRL-SV40 (nucleic acid)
DNA: B3 DNA with T51G, G53T, C56G
modifications: in pRL-SV40; U1-140 wt in pRL-SV40
Consider B4, for which, in data set [1], the “reduction fold (luciferase activity of mutant construct / wild type construct)” value was determined as 12 fold and the “inhibition of Renilla luciferase expression/activity” value is given as 91%.

B5: U1_theo_8: U1 site stem linked to theophylline aptamer in pRL-SV40, stem truncation series (nucleic acid)
DNA: TCAAATCGTTCGTTGAGCGAGTTCTCAAAAATGAACAATAATTCTAGAGCGGCCGCTTCGAGCAGACATGATAAGATACATTGATGAGTTTGGACAAACCAAACCCAGGTAAGTGATACCAGCCGAAAGGCCCTTGGCAGCACTTACCTGGGCAACTAGAATGCAGTGAAAAAAATGCTTTATTTGTGAAATTTGTGATGCTATTGCTTTATTTGTAACCATTATAAGCTGCAATAAACAAGTTAACAACAAC
modifications: in pRL-SV40; U1_theo_8 in pRL-SV40
notes: U1 site stem linked to theophylline aptamer in pRL-SV40, stem truncation series
For the molecule B5, in data set [2], the “induction fold of luciferase activity (theophylline treated / untreated)” value was 1.3 fold. In addition, the “change of luciferase activity after theophylline treatment (in words)” value in data set [2] is given as “small increase in luciferase activity”; in data set [2] (listed as 8), “increased”.

B6: U1_theo_8_1: sequential stem mutation of U1_theo_8 in pRL-SV40 (nucleic acid)
DNA: B5 DNA with G152A
modifications: in pRL-SV40; U1_theo_8_1 in pRL-SV40
On to B6, for which, in data set [2], the “induction fold of luciferase activity (theophylline treated / untreated)” value was found to be 1.8 fold.

B7: U1-87 mut: 10-nt mutant U1 binding sequence at −87 in pRL-SV40 (nucleic acid)
DNA: TCAAATCGTTCGTTGAGCGAGTTCTCAAAAATGAACAATAATTCTAGAGCGGCCGCTTCGAGCAGACATGATAAGATACATTGATGAGTTTGGACAAACCATGGAACTACAACTAGAATGCAGTGAAAAAAATGCTTTATTTGTGAAATTTGTGATGCTATTGCTTTATTTGTAACCATTATAAGCTGCAATAAACAAGTTAACAACAAC
modifications: in pRL-SV40; U1-87 mut in pRL-SV40
Turning to B7, in data set [1], the “suppressive effect of U1 site” value was “did not have any suppressive effect on luciferase gene expression”.

B8: U1-87 wt: 10-nt consensus U1 binding sequence 87 nt upstream of poly(A) signal in 3′ UTR of pRL-SV40 (nucleic acid)
DNA: B7 DNA with T102G, G104T, C107G
modifications: in pRL-SV40; U1-87 wt in pRL-SV40
As for B8, in data set [1], the “reduction fold (luciferase activity of mutant construct / wild type construct)” value amounted to 50 fold and the “inhibition of Renilla luciferase expression/activity” value stood at 98%.

B9: U1 87-9 SL: 9 nt U1 site embedded in a stem-loop structure in pRL-SV40 (nucleic acid)
DNA: TCAAATCGTTCGTTGAGCGAGTTCTCAAAAATGAACAATAATTCTAGAGCGGCCGCTTCGAGCAGACATGATAAGATACATTGATGAGTTTGGACAAACCAAACCCAGGTAAGTTACCGAAAGGTAACTTACCTGGGCAACTAGAATGCAGTGAAAAAAATGCTTTATTTGTGAAATTTGTGATGCTATTGCTTTATTTGTAACCATTATAAGCTGCAATAAACAAGTTAACAACAAC
modifications: in pRL-SV40; U1 87-9 SL in pRL-SV40
notes: 9 nt U1 site embedded in a stem-loop structure in pRL-SV40
Consider B9, for which the “suppressive effect of U1 site” value in data set [1] was “completely abolished the suppressive effect of the U1 site”; in data set [1] (listed as U1 87-9 stem loop) it was “completely abolished the suppressive effect”.

B10: U1_theo_9: U1 site stem linked to theophylline aptamer in pRL-SV40, stem truncation series (nucleic acid)
DNA: TCAAATCGTTCGTTGAGCGAGTTCTCAAAAATGAACAATAATTCTAGAGCGGCCGCTTCGAGCAGACATGATAAGATACATTGATGAGTTTGGACAAACCAAACCCAGGTAAGTATACCAGCCGAAAGGCCCTTGGCAGACTTACCTGGGCAACTAGAATGCAGTGAAAAAAATGCTTTATTTGTGAAATTTGTGATGCTATTGCTTTATTTGTAACCATTATAAGCTGCAATAAACAAGTTAACAACAAC
modifications: in pRL-SV40; U1_theo_9 in pRL-SV40
notes: as for B5
Take B10: the “change of luciferase activity after theophylline treatment (in words)” value was “small increase in luciferase activity” in data set [2] and “increased” in data set [2] (listed as 9).

B11: 3×U1-140 wt: 3 copies of wild type U1 binding sequence at −140 in pRL-SV40 (nucleic acid)
DNA: TCAAATCGTTCGTTGAGCGAGTTCTCAAAAATGAACAATAATTCTAGACAGGTAAGTAACCAAACAGGTAAGTAACCAAACAGGTAAGTAGCGGCCGCTTCGAGCAGACATGATAAGATACATTGATGAGTTTGGACAAACCACAACTAGAATGCAGTGAAAAAAATGCTTTATTTGTGAAATTTGTGATGCTATTGCTTTATTTGTAACCATTATAAGCTGCAATAAACAAGTTAACAACAAC
modifications: in pRL-SV40; 3xU1-140 wt in pRL-SV40
On to B11, for which, in data set [1], the “reduction fold (luciferase activity of mutant construct / wild type construct)” value is reported as 462 fold.

B12: 87-9: 9-nt truncated U1 site at −87 in pRL-SV40 (nucleic acid)
DNA: TCAAATCGTTCGTTGAGCGAGTTCTCAAAAATGAACAATAATTCTAGAGCGGCCGCTTCGAGCAGACATGATAAGATACATTGATGAGTTTGGACAAACCAGGTAAGTCAACTAGAATGCAGTGAAAAAAATGCTTTATTTGTGAAATTTGTGATGCTATTGCTTTATTTGTAACCATTATAAGCTGCAATAAACAAGTTAACAACAAC
modifications: in pRL-SV40; 87-9 in pRL-SV40
notes: 9-nt truncated U1 site at −87 in pRL-SV40
Take B12: the “suppressive effect of U1 site” value in data set [1] is recorded as “functioned as well as the 10-nt U1 site”.
